Measured values from US20060281899A1, “Mutants of biotin binding protein” (priority 2002, published 2006).
Like-named read-outs stand apart in the source and are kept apart here.

What was measured:
[1] = IASyS reversibility of biotin binding of avidin and AVRs; details: biotin cuvette, after addition of free biotin (0.17 mg/ml)
Protocol: The reversibility of biotin binding was studied as follows: Avidin and the AVRs were allowed to bind to a biotin-coated cuvette. After measuring the initial binding (A) as described above, biotin-saturated (0.17 mg/ml) buffer was injected into the cuvette and the amount of proteins remaining bound was measured until no dissociation was seen, again as compared to the negative control cuvette (B). The measurement time was at least 20 minutes. The percent reversibility was calculated as follows: reversibility (%)=100*(A−B)/A. A−B is the amount of liberated proteins after biotin adding.

[2] = IAsys optical biosensor, AVR4/5 forms binding to 2-iminobiotin surface; details: for Kd: 20° C.
Protocol: The biotin-binding characteristics of the different avidins were studied using an IAsys optical biosensor at 20° C. The reversibility of binding and binding affinities to the 2-iminobiotin surface in 50 mM borate buffer (pH 9.5, 1 M NaCl) were measured as previously reported (Laitinen, O. H., Hytönen, V. P., Ahlroth, M. K., Pentikäinen, O. T., Gallagher, C., Nordlund, H. R., Ovod, V., Marttila, A. T., Porkka, E., Heino, S., Johnson, M. S., Airenne, K. J. & Kulomaa, M. S. (2002) Biochem. J. 363, 609-617).
Briefly, The 2-iminobiotin ligand was immobilized onto the carboxymethyldextran surface of a cuvette using N-hydroxysuccinimide activation. Binding of various concentrations of avidin or avidin mutants onto 2-iminobiotinylated surface were measured in a 50 mM borate buffer (pH 9.5) containing 1 M NaCl at 20° C. The iminobiotin cuvettes were regenerated with 20 mM HCl. The kinetic rate constants for association (kass) and dissociation (kdiss) were calculated using the Fast Fit program package (Affinity Sensors). The obtained rate constants were used to calculate Kd(rel) according to Kd=kdiss/kass. Equilibrium data obtained from measurements with different protein concentrations were used to calculate the dissociation constant Kd(eq).

[3] = Microparticle analysis, BF523-biotin binding of protein-coated particles before and after 95° C.; format: physicochemical
Protocol: Before the analysis, 3.22 μm microparticles with COOH-group/0.852 nm2 (Bangs laboratories, Fishers, Ind., USA) were covalently coated with biotin-binding proteins. Microparticles (1*108 pcs) were washed twice with H20 by sequential centrifuging (5000 g; 3 min) and aspiration, and resuspended in 200 μl PB buffer (50 mM NaH2PO4-HCl, pH 3.0). A solution of biotin binding protein (50 μl, 1 mg/ml or 3 mg/ml, 50 mM Na-acetate pH 4.0) was added while vortexing. The suspension was incubated for 1 h (500 rpm; 23° C.). Particles were washed with PB and with MES buffer (50 mM, pH 5.5) and suspended in MES buffer (200 μl). […] After the last wash particles were suspended in 100 μl volume and concentration of particles was determined with Multisizer 3 Coulter Counter (Beckman Coulter, Fullerton, Calif., USA). […]
Microparticles (5*106 pcs) were suspended in 900 μl of assay buffer and aliquoted in […] PCR-tubes (i-v; 180 μl/aliquot). […] The samples were measured with ArcDia TPX PlateReader (ArcDia Ltd.) (Soini, E., Meltola, N. J., Soini, A. E., Soukka, J., Soini, J. T. & Hanninen, P. E. (2000) Biochem. Soc. Trans. 28, 70-74). […]
The fluorescence emission efficiencies of the BF523-biotin conjugate (200 nM) was determined before and after the incubation (30 min) at 95° C. […]

Reversibility of biotin binding [1]: 2 ± 2%
kass [2]: (7.0 ± 2.1) × 10^3 M^−1s^−1
kdiss [2]: (1.6 ± 1.4) × 10^−3 s^−1
Kd ([2]; 50 mM borate pH 9.5, 1 M NaCl, read-out: Kd detected from the equilibrium response data): 160 nM
Kd ([2]; pH 9.5, 1 M NaCl, read-out: Kd detected directly from the binding curves): 230 nM
capacity of coated particles ([3]; BF523-biotin binding, no heat treatment (i, iii)): remarkably higher
B1: AVR4/5: Recombinant chicken avidin-related protein 4/5 (AVR4 and AVR5 identical in coding sequence) (protein, UniProt P56734 25-150, looked up)
Avidin-related protein 4/5: ARKCSLTGKWTNNLGSIMTIRAVNSRGEFTGTYLTAVADNPGNITLSPLLGIQHKRASQPTFGFTVHWNFSESTTVFTGQCFIDRNGKEVLKTMWLLRSSVNDISYDWKATRVGYNNFTRLCTVEE
original signal after heat treatment of coated particles ([3]; 30 minutes at 95° C., BF523-biotin added after treatment (iv)): 93%
